The source of these data is publication PMC10681739, “High-throughput data and modeling reveal insights into the mechanisms of cooperative DNA-binding by transcription factor proteins”.

Sequences and labels used below:
B1: Table S2 A row 101 (dsDNA)
DNA 1: GAGGGACAGGATGCCGCCAGGAACCACAAGAGCTTC
DNA 2: GAAGCTCTTGTGGTTCCTGGCGGCATCCTGTCCCTC
B2: Table S2 A row 276 (dsDNA)
DNA 1: CAGCTGACAGGAAGGAGAGAACCACAGACAGTGCGA
DNA 2: TCGCACTGTCTGTGGTTCTCTCCTTCCTGTCAGCTG
B3: Table S2 A row 464 (dsDNA)
DNA 1: AGCGACAGCGGATGCTCTCTGGCCGCAACATTCTTT
DNA 2: AAAGAATGTTGCGGCCAGAGAGCATCCGCTGTCGCT
B4: Table S2 A row 386 (dsDNA)
DNA 1: AACTGGGCGGAAAGAACGGCTAACCGCAAGCTGCCG
DNA 2: CGGCAGCTTGCGGTTAGCCGTTCTTTCCGCCCAGTT
B5: Table S2 A row 328 (dsDNA)
DNA 1: AGTAGAGGAGGAAGTTAAATGTGGTTTTCTGGGTGG
DNA 2: CCACCCAGAAAACCACATTTAACTTCCTCCTCTACT
B6: Table S2 A row 769 (dsDNA)
DNA 1: CAAGCCAACATCCTGACAGTTTAGAAACCACAGGAG
DNA 2: CTCCTGTGGTTTCTAAACTGTCAGGATGTTGGCTTG
B7: Table S2 A row 1390 (dsDNA)
DNA 1: CTGTGACACGTGCGGAAGCTGTGGTAAGTGCATCCA
DNA 2: TGGATGCACTTACCACAGCTTCCGCACGTGTCACAG
B8: Table S2 A row 37 (dsDNA)
DNA 1: AGAATCGCATCAGGATGTGGTGAGGGAGCACATTTG
DNA 2: CAAATGTGCTCCCTCACCACATCCTGATGCGATTCT
B9: Table S2 A row 388 (dsDNA)
DNA 1: GCAGTTTCAAGAGGATGTGGTCTCTTTCACTGCCTG
DNA 2: CAGGCAGTGAAAGAGACCACATCCTCTTGAAACTGC
B10: Table S2 A row 1482 (dsDNA)
DNA 1: CCATCCAGGAAGCTTATGGTGCAACCGCAGTGTGCC
DNA 2: GGCACACTGCGGTTGCACCATAAGCTTCCTGGATGG
B11: Table S2 A row 240 (dsDNA)
DNA 1: CAGGCTCGCCACAGGGGAAGTGGTTAGGGCGGGTCC
DNA 2: GGACCCGCCCTAACCACTTCCCCTGTGGCGAGCCTG
B12: Table S2 A row 1075 (dsDNA)
DNA 1: GTTGCAGGAAACGATGGGTTTTGTGGTATGAACTGC
DNA 2: GCAGTTCATACCACAAAACCCATCGTTTCCTGCAAC
B13: Table S2 A row 1175 (dsDNA)
DNA 1: TTGCTCCCGGAAGCCCCGCCCGACCGCGGCTCCTGA
DNA 2: TCAGGAGCCGCGGTCGGGCGGGGCTTCCGGGAGCAA
B14: Table S2 A row 548 (dsDNA)
DNA 1: CTCTCACTTCCCGTGTGAGAAAAACCACAGAAAAGC
DNA 2: GCTTTTCTGTGGTTTTTCTCACACGGGAAGTGAGAG
B15: Table S2 A row 315 (dsDNA)
DNA 1: GAAAAATGAAGTTTCCGCAGTAACCACAACACAGCC
DNA 2: GGCTGTGTTGTGGTTACTGCGGAAACTTCATTTTTC
B16: Table S2 A row 1256 (dsDNA)
DNA 1: AGCCGTCATTCAGGATGTGGTGACAGACATGGAGAC
DNA 2: GTCTCCATGTCTGTCACCACATCCTGAATGACGGCT
B17: Table S2 A row 83 (dsDNA)
DNA 1: GACAGACCTTAGGAAGTCGCGGTTTCATCAGGGCTT
DNA 2: AAGCCCTGATGAAACCGCGACTTCCTAAGGTCTGTC
B18: Table S2 A row 294 (dsDNA)
DNA 1: GCAGGACTTCCTGTGTTGTGCTAACCTCAAATTACA
DNA 2: TGTAATTTGAGGTTAGCACAACACAGGAAGTCCTGC
B19: Table S2 A row 1447 (dsDNA)
DNA 1: ACACCTCAGGAAGTGGCAGAGACCACAACAAGTCAG
DNA 2: CTGACTTGTTGTGGTCTCTGCCACTTCCTGAGGTGT
B20: Table S2 A row 342 (dsDNA)
DNA 1: ACACCCCAGGAAGTGGCAGAGACCACAACAAGTCAG
DNA 2: CTGACTTGTTGTGGTCTCTGCCACTTCCTGGGGTGT
B21: Table S2 A row 791 (dsDNA)
DNA 1: CGGCAGGCAAGCAGGAAACCGCGAGTGGAGAAAGGG
DNA 2: CCCTTTCTCCACTCGCGGTTTCCTGCTTGCCTGCCG
B22: Table S2 A row 108 (dsDNA)
DNA 1: CACTTCCTGTCAAAGCCAGTTCCTTAACCGCTTAGG
DNA 2: CCTAAGCGGTTAAGGAACTGGCTTTGACAGGAAGTG
B23: Table S2 A row 1686 (dsDNA)
DNA 1: TGAGCCTTGGAAGGAAATGATTCACCACAATACTGT
DNA 2: ACAGTATTGTGGTGAATCATTTCCTTCCAAGGCTCA
B24: Table S2 A row 1415 (dsDNA)
DNA 1: AGGCTGTGTGAAGGATGTGGTCAGGCGGAGGCCAGG
DNA 2: CCTGGCCTCCGCCTGACCACATCCTTCACACAGCCT
B25: Table S2 A row 1108 (dsDNA)
DNA 1: CATGGGGAGGAGGAAGTGGTGGCGGCCGCAGGCCAG
DNA 2: CTGGCCTGCGGCCGCCACCACTTCCTCCTCCCCATG
B26: Table S2 A row 1340 (dsDNA)
DNA 1: CATTTCAGTCCAGGATGTGGGTGCACACACCGCTTC
DNA 2: GAAGCGGTGTGTGCACCCACATCCTGGACTGAAATG
B27: Table S2 A row 18 (dsDNA)
DNA 1: GAGGCAGGCGGATGTCAGTGTGGTTAGAGCACAGTG
DNA 2: CACTGTGCTCTAACCACACTGACATCCGCCTGCCTC
B28: Table S2 A row 224 (dsDNA)
DNA 1: GACCAATGTAAACAAGGATGTGGGTTCTCCGGGCAC
DNA 2: GTGCCCGGAGAACCCACATCCTTGTTTACATTGGTC
B29: Table S2 A row 337 (dsDNA)
DNA 1: ATAGTCTCTTCCTGTGTTGCAAACCACAGGTCCACC
DNA 2: GGTGGACCTGTGGTTTGCAACACAGGAAGAGACTAT
B30: Table S2 A row 1216 (dsDNA)
DNA 1: CCCGGCCACTTCCGCCTATTGCGGGCGTCGGCTAGG
DNA 2: CCTAGCCGACGCCCGCAATAGGCGGAAGTGGCCGGG
B31: Table S2 A row 149 (dsDNA)
DNA 1: TTCAACAGGATATTGCTTTGTTACCACAGGCCCTTT
DNA 2: AAAGGGCCTGTGGTAACAAAGCAATATCCTGTTGAA
B32: Table S2 A row 988 (dsDNA)
DNA 1: TCATGCTGCTTCCTGCCCAACCCGCAGTTCCGATAA
DNA 2: TTATCGGAACTGCGGGTTGGGCAGGAAGCAGCATGA
B33: Table S2 A row 1293 (dsDNA)
DNA 1: AGGTCGCCCTCCGGATGCGGTCCCCACACCGCCTGC
DNA 2: GCAGGCGGTGTGGGGACCGCATCCGGAGGGCGACCT
B34: Table S2 A row 1407 (dsDNA)
DNA 1: TGTGTATGAGAACGGATATAGGTGGTTTTATAAGGA
DNA 2: TCCTTATAAAACCACCTATATCCGTTCTCATACACA
B35: Table S2 A row 1754 (dsDNA)
DNA 1: AACAGTTGCATAGGAAGTGGTCAGCTCTCCTCCACC
DNA 2: GGTGGAGGAGAGCTGACCACTTCCTATGCAACTGTT
B36: Table S2 A row 979 (dsDNA)
DNA 1: GCGCGGCCCGGAAGGGGGTAACCGCTGAGTCTTTGA
DNA 2: TCAAAGACTCAGCGGTTACCCCCTTCCGGGCCGCGC
B37: Table S2 A row 692 (dsDNA)
DNA 1: TGCGAGGTTGCCAGGAAACCGCGAAGCCGAGGTCCC
DNA 2: GGGACCTCGGCTTCGCGGTTTCCTGGCAACCTCGCA
B38: Table S2 A row 843 (dsDNA)
DNA 1: CCTTGCTACAGGATGTTTTGACCACGAGCCCAGGAG
DNA 2: CTCCTGGGCTCGTGGTCAAAACATCCTGTAGCAAGG
B39: Table S2 A row 195 (dsDNA)
DNA 1: GCTCCCGGATGTTCTGGGGATCTGCGGCCGCCTGGC
DNA 2: GCCAGGCGGCCGCAGATCCCCAGAACATCCGGGAGC
B40: Table S2 A row 340 (dsDNA)
DNA 1: CAGAGCAGAGAGGAAGTGGTGGTGGCCACAGTCCCA
DNA 2: TGGGACTGTGGCCACCACCACTTCCTCTCTGCTCTG
B41: Table S2 A row 762 (dsDNA)
DNA 1: CAGAAAGAGGAAATGATGCGAGTCCACACCGCAGGC
DNA 2: GCCTGCGGTGTGGACTCGCATCATTTCCTCTTTCTG
B42: Table S2 A row 789 (dsDNA)
DNA 1: TCCCACTGCGACGGAAGCACAGCGGTTAAGATTGCA
DNA 2: TGCAATCTTAACCGCTGTGCTTCCGTCGCAGTGGGA

The data set has as its target ETS1:RUNX1 (Homo sapiens, UniProt P14921;Q01196 full;full). Nature of the data set: gcPBM; 1 nM ETS1 + 25 nM RUNX1, anti-ETS1 signal, normalised. As to conditions: tags: N-terminal GST (pDEST15), kept (PMC6008103); copies: 1;1; label: surface-attached array probe.
Regarding B1, the binding signal was 2530 PBM fluorescence, median of replicate spots.

On to B2, for which the binding signal is 2270 PBM fluorescence, median of replicate spots.

For B3, the binding signal was 2940 PBM fluorescence, median of replicate spots.

Take B4: the binding signal was 3490 PBM fluorescence, median of replicate spots.

In the case of B5, the binding signal is 2960 PBM fluorescence, median of replicate spots.

For the molecule B6, the binding signal was 1670 PBM fluorescence, median of replicate spots.

For B7, the binding signal was 3240 PBM fluorescence, median of replicate spots.

In the case of B8, the binding signal was 2110 PBM fluorescence, median of replicate spots.

Regarding B9, the binding signal was 1800 PBM fluorescence, median of replicate spots.

In the case of B10, the binding signal is 2210 PBM fluorescence, median of replicate spots.

Regarding B11, the binding signal was 2340 PBM fluorescence, median of replicate spots.

As to B12, the binding signal was 2140 PBM fluorescence, median of replicate spots.

For the molecule B13, the binding signal was 1960 PBM fluorescence, median of replicate spots.

As to B14, the binding signal was 2080 PBM fluorescence, median of replicate spots.

Consider B15, for which the binding signal was 1900 PBM fluorescence, median of replicate spots.

For the molecule B16, the binding signal is 2490 PBM fluorescence, median of replicate spots.

As for B17, the binding signal was 1710 PBM fluorescence, median of replicate spots.

On to B18, for which the binding signal is 2660 PBM fluorescence, median of replicate spots.

Regarding B19, the binding signal is 2380 PBM fluorescence, median of replicate spots.

Take B20: the binding signal is 1810 PBM fluorescence, median of replicate spots.

On to B21, for which the binding signal is 2990 PBM fluorescence, median of replicate spots.

B22: the binding signal is 2540 PBM fluorescence, median of replicate spots.

Consider B23, for which the binding signal is 2590 PBM fluorescence, median of replicate spots.

B24: the binding signal was 2710 PBM fluorescence, median of replicate spots.

In the case of B25, the binding signal was 2880 PBM fluorescence, median of replicate spots.

For B26, the binding signal was 2860 PBM fluorescence, median of replicate spots.

In the case of B27, the binding signal was 3320 PBM fluorescence, median of replicate spots.

As for B28, the binding signal is 2020 PBM fluorescence, median of replicate spots.

For B29, the binding signal was 1690 PBM fluorescence, median of replicate spots.

For B30, the binding signal is 3350 PBM fluorescence, median of replicate spots.

For the molecule B31, the binding signal is 3020 PBM fluorescence, median of replicate spots.

As for B32, the binding signal is 1730 PBM fluorescence, median of replicate spots.

For B33, the binding signal was 3170 PBM fluorescence, median of replicate spots.

On to B34, for which the binding signal is 3120 PBM fluorescence, median of replicate spots.

As to B35, the binding signal is 2050 PBM fluorescence, median of replicate spots.

As to B36, the binding signal was 1910 PBM fluorescence, median of replicate spots.

On to B37, for which the binding signal was 2180 PBM fluorescence, median of replicate spots.

Turning to B38, the binding signal is 2240 PBM fluorescence, median of replicate spots.

Regarding B39, the binding signal was 2440 PBM fluorescence, median of replicate spots.

Turning to B40, the binding signal was 2770 PBM fluorescence, median of replicate spots.

Consider B41, for which the binding signal is 2620 PBM fluorescence, median of replicate spots.

In the case of B42, the binding signal is 2460 PBM fluorescence, median of replicate spots.
